Article PMC10397247

What was measured:
APC2981-AA = target: T1, APC2981-AA; test: two-hybrid library CCmax; settings: mean of both orientations;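 note: natural log of median RNA to DNA barcode read ratio; higher means stronger binding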
T1 chain: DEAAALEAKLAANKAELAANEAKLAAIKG

APC3323-AA = target: T2, APC3323-AA; test: two-hybrid library CCmax; settings: mean of both orientations;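 note: natural log of median RNA to DNA barcode read ratio; higher means stronger binding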
T2 chain: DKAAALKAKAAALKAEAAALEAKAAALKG

APC542-AA = target: T3, APC542-AA; test: two-hybrid library CCmax; settings: mean of both orientations;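 note: natural log of median RNA to DNA barcode read ratio; higher means stronger binding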
T3 chain: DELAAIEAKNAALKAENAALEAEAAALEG

APC4336-AA = target: T4, APC4336-AA; test: two-hybrid library CCmax; settings: mean of both orientations;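 note: natural log of median RNA to DNA barcode read ratio; higher means stronger binding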
T4 chain: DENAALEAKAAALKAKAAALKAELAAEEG

APC2556-AA = target: T5, APC2556-AA; test: two-hybrid library CCmax;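 note: natural log of median RNA to DNA barcode read ratio; higher means stronger binding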
T5 chain: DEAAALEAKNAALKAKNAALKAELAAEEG

APC3354-AA = target: T6, APC3354-AA; test: two-hybrid library CCmax; settings: mean of both orientations;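 note: natural log of median RNA to DNA barcode read ratio; higher means stronger binding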
T6 chain: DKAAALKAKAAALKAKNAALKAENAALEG

APC2811-AA = target: T7, APC2811-AA; test: two-hybrid library CCmax; settings: mean of both orientations
T7 chain: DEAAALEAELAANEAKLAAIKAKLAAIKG

APC7524-AA = target: T8, APC7524-AA; test: two-hybrid library CCmax; settings: mean of both orientations
T8 chain: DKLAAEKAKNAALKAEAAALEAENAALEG

APC9141-AA = target: T9, APC9141-AA; test: two-hybrid library CCmax; settings: mean of both orientations
T9 chain: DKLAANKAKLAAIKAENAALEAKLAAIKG

APC4100-AA = target: T10, APC4100-AA; test: two-hybrid library CCmax; settings: mean of both orientations
T10 chain: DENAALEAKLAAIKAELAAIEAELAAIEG

APC3881-AA = target: T11, APC3881-AA; test: two-hybrid library CCmax; settings: mean of both orientations
T11 chain: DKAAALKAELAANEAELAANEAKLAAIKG

APC5531-AA = target: T12, APC5531-AA; test: two-hybrid library CCmax; settings: mean of both orientations
T12 chain: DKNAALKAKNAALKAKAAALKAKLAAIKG

APC8516-AA = target: T13, APC8516-AA; test: two-hybrid library CCmax; settings: mean of both orientations
T13 chain: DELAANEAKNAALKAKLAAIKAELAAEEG

APC3265-AA = target: T14, APC3265-AA; test: two-hybrid library CCmax; settings: mean of both orientations
T14 chain: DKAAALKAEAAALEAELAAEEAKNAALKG

APC5009-AA = target: T15, APC5009-AA; test: two-hybrid library CCmax; settings: mean of both orientations
T15 chain: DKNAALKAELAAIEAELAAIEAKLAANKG

APC2724-AA = target: T16, APC2724-AA; test: two-hybrid library CCmax; settings: mean of both orientations
T16 chain: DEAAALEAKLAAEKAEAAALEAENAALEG

APC9182-AA = target: T17, APC9182-AA; test: two-hybrid library CCmax; settings: mean of both orientations
T17 chain: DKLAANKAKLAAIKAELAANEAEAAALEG

APC9291-AA = target: T18, APC9291-AA; test: two-hybrid library CCmax; settings: mean of both orientations
T18 chain: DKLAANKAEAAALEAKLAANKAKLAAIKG

APC9806-AA = target: T19, APC9806-AA; test: two-hybrid library CCmax; settings: mean of both orientations
T19 chain: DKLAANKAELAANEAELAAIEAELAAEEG

APC6088-AA = target: T20, APC6088-AA; test: two-hybrid library CCmax; settings: mean of both orientations
T20 chain: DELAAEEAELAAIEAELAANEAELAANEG

APC8401-AA = target: T21, APC8401-AA; test: two-hybrid library CCmax; settings: mean of both orientations
T21 chain: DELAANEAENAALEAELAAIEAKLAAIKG

4H3974-bN = target: T22, 4H3974-bN; test: two-hybrid library CCNG1
T22 chain: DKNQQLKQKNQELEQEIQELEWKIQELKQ

4H570-bN = target: T23, 4H570-bN; test: two-hybrid library CCNG1
T23 chain: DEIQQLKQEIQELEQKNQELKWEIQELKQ

4H3817-bN = target: T24, 4H3817-bN; test: two-hybrid library CCNG1
T24 chain: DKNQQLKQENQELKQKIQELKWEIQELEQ

4H906-bN = target: T25, 4H906-bN; test: two-hybrid library CCNG1
T25 chain: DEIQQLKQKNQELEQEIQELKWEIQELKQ

4H3638-bN = target: T26, 4H3638-bN; test: two-hybrid library CCNG1
T26 chain: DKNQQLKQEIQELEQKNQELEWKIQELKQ

4H584-bN = target: T27, 4H584-bN; test: two-hybrid library CCNG1
T27 chain: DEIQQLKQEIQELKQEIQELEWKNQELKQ

4H3129-bN = target: T28, 4H3129-bN; test: two-hybrid library CCNG1
T28 chain: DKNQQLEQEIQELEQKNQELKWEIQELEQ

4H3172-bN = target: T29, 4H3172-bN; test: two-hybrid library CCNG1
T29 chain: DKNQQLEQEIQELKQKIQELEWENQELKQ

4H619-bN = target: T30, 4H619-bN; test: two-hybrid library CCNG1
T30 chain: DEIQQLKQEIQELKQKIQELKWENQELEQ

4H3414-bN = target: T31, 4H3414-bN; test: two-hybrid library CCNG1
T31 chain: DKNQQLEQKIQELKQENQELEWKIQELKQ

4H850-bN = target: T32, 4H850-bN; test: two-hybrid library CCNG1
T32 chain: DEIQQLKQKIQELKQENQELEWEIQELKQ

4H3631-bN = target: T33, 4H3631-bN; test: two-hybrid library CCNG1
T33 chain: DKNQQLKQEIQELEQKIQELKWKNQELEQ

4H3277-bN = target: T34, 4H3277-bN; test: two-hybrid library CCNG1
T34 chain: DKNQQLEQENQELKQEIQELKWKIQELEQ

4H2839-bN = target: T35, 4H2839-bN; test: two-hybrid library CCNG1
T35 chain: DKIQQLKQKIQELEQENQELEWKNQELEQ

4H492-bN = target: T36, 4H492-bN; test: two-hybrid library CCNG1
T36 chain: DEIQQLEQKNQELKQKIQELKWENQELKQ

4H2717-bN = target: T37, 4H2717-bN; test: two-hybrid library CCNG1
T37 chain: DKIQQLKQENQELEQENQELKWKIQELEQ

4H741-bN = target: T38, 4H741-bN; test: two-hybrid library CCNG1
T38 chain: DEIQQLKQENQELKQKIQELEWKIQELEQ

4H348-bN = target: T39, 4H348-bN; test: two-hybrid library CCNG1
T39 chain: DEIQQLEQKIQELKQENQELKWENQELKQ

4H477-bN = target: T40, 4H477-bN; test: two-hybrid library CCNG1
T40 chain: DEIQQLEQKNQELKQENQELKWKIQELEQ

4H3057-bN = target: T41, 4H3057-bN; test: two-hybrid library CCNG1
T41 chain: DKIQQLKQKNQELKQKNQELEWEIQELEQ

4H2692-bN = target: T42, 4H2692-bN; test: two-hybrid library CCNG1
T42 chain: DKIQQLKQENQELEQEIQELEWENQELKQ

4H2915-bN = target: T43, 4H2915-bN; test: two-hybrid library CCNG1
T43 chain: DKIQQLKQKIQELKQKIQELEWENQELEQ

4H40-bN = target: T44, 4H40-bN; test: two-hybrid library CCNG1
T44 chain: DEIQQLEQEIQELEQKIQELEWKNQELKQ

4H319-bN = target: T45, 4H319-bN; test: two-hybrid library CCNG1
T45 chain: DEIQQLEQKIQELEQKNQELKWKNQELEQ

4H2588-bN = target: T46, 4H2588-bN; test: two-hybrid library CCNG1
T46 chain: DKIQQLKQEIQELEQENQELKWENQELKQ

B1: APC2556-AA (peptide)
chain: DEAAALEAKNAALKAKNAALKAELAAEEG
B1 gave an interaction score (APC2981-AA) of -1.98, an interaction score (APC3323-AA) of -1.82 and an interaction score (APC542-AA) of -1.72. It also gave an interaction score (APC4336-AA) of -1.77, an interaction score (APC2556-AA) of -1.78 and an interaction score (APC3354-AA) of -1.9. It also gave an interaction score (APC2811-AA) of -1.73, an interaction score (APC7524-AA) of -2.09 and an interaction score (APC9141-AA) of -1.94. For the same binder, the interaction score (APC4100-AA) was -2.2, the interaction score (APC3881-AA) was -1.61 and the interaction score (APC5531-AA) was -1.7. The interaction score (APC8516-AA) was -2.01, the interaction score (APC3265-AA) was -1.69 and the interaction score (APC5009-AA) was -1.65. For the same binder, the interaction score (APC2724-AA) was -1.65, the interaction score (APC9182-AA) was -1.74 and the interaction score (APC9291-AA) was -1.79. For the same binder, the interaction score (APC9806-AA) was -2.15, the interaction score (APC6088-AA) was -1.75 and the interaction score (APC8401-AA) was -1.48.

B2: 4H3129-bN (peptide)
chain: DKNQQLEQEIQELEQKNQELKWEIQELEQ
Work on B2 yielded an interaction score (4H3974-bN) of -0.744, an interaction score (4H570-bN) of -0.835 and an interaction score (4H3817-bN) of -1.45. The interaction score (4H906-bN) was -1.2, the interaction score (4H3638-bN) was -1.26 and the interaction score (4H584-bN) was -1.09. It also gave an interaction score (4H3129-bN) of -0.749, an interaction score (4H3172-bN) of -0.806 and an interaction score (4H619-bN) of -0.774. It also gave an interaction score (4H3414-bN) of 1.09, an interaction score (4H850-bN) of -1.41 and an interaction score (4H3631-bN) of -1.47.

B3: 4H2588-bN (peptide)
chain: DKIQQLKQEIQELEQENQELKWENQELKQ
Binder B3 has an interaction score (4H3277-bN) of -0.49, an interaction score (4H2839-bN) of -1.16 and an interaction score (4H492-bN) of -0.343. The interaction score (4H2717-bN) was 0.223, the interaction score (4H741-bN) was 0.0254 and the interaction score (4H348-bN) was 1.49. It also gave an interaction score (4H477-bN) of -1.95, an interaction score (4H3057-bN) of -1.34 and an interaction score (4H2692-bN) of 0.0187. The interaction score (4H2915-bN) was 0.795, the interaction score (4H40-bN) was -0.648 and the interaction score (4H319-bN) was -0.863. For the same binder, the interaction score (4H2588-bN) was 0.138.
